22 sequences from the DeepSol protein solubility set can be followed below.

This series is described as follows: soluble on expression in E. coli; label from the status in PepcDB or PDB records.
For the sequence “MAHHHHHHMTKTNGQNAARKLVRLRCRNRWADKGWKRAHTFSARKANPFGGSSHAKGIVLEKIGVGAKQPNSAIRKCVRVQLIKNDKKIIAFVPNDGCLHFIEENDEVLVSGFGRSGHAVGDIPGVRFKIVKVSNVGLYALYRQKKEKPRN”, the “soluble on expression in E. coli” value is on record as “not soluble”.
Turning to “MSKDVSIGWMYEGAKGNVHREDYLLGKKVDKNFEKYSDVVNAQKAEAIDSIVGTRAVFNSGQSTGLKTSSLQKDIIKSEDPFVAVKVREETKRREIMDNPLTKMRLQAALKSMMTSKAEKSKEKKSKKDKKKKKKKRSSSSSDESSDERVERKRRRSPSPKRRRRPSEKPRKRSRSPRRERPRSPKRSREESRKLSRKPSSSRSKSPRRSREDPRKVARKPSRSRSRSAERLRRKSRSPRRSREEPRKMSRSRSRSADKASSSRQFDSHIPRHLQQQRSRHDSSSGSESEHETRSSHRRRNSDDDERQDPRKKSYGLVEMRKRTAEEREEESRAPTKEYKLVKIPTGRGTGNTPREPRRALSEAEKAARLAEMQQDNVKWRDEIRERNVTKGRKEDDEEKEEADKNGYAPSFIRSQMREACDDMTVEKRLQSNKRGVQRAHGYMDRSFAKK”, the “soluble on expression in E. coli” value is recorded as “not soluble”.
For the sequence “MKAMNKVWVIGDASVDLVPEKQNSYLKCPGGASANVGVCVARLGGECGFIGCLGDDDAGRFLRQVFQDNGVDVTFLRLDADLTSAVLIVNLTADGERSFTYLVHPGADTYVSPQDLPPFRQYEWFYFSSIGLTDRPAREACLEGARRMREAGGYVLFDVNLRSKMWGNTDEIPELIARSAALASICKVSADELCQLSGASHWQDARYYLRDLGCDTTIISLGADGALLITAEGEFHFPAPRVDVVDTTGAGDAFVGGLLFTLSRANCWDHALLAEAISNANACGAMAVTAKGAMTALPFPDQLNTFLSSHSLAQAMTVK”, the “soluble on expression in E. coli” value is “not soluble”.
The entry for “MGHHHHHHSHMHSLATAAPVPTTLAQVDREKIYQWINELSSPETRENALLELSKKRESVPDLAPMLWHSFGTIAALLQEIVNIYPSINPPTLTAHQSNRVCNALALLQCVASHPETRSAFLAAHIPLFLYPFLHTVSKTRPFEYLRLTSLGVTGALVKTDEQEVINFLLTTEIIPLCLRIMESGSELSKTVATFILQKILLDDTGLAYICQTYERFSHVAMILGKMVLQLSKEPSARLLKHVVRCYLRLSDNPRFSDLTFCWSSFQRK” is “not soluble”; for “MSLKNVLITGANSYIGLSFKNWLAKEPEKYKVDSISLRGDLWKEKDFSQYDVLLHAAGIAHIKETKENKELYFKVNRDVAYEAAKKAKDEGIKQFIFLSSMSVYGKENGIIDLDTLPKPTSNYGESKLQAEKLIEMLDDDSFKVVTIRPPMIYGKGCKGNYPKLAKLARKLPVFPDVENERSMIHIENLCEFMKLIIDNNDAGLFLPQNDDFVKTSEMVRLIGETNGKRIKLTKFFNPVLNLFIGKIGVVNKVFGNLKYKKEISNYKDNYIINNFAESIRRTEEGHHHHHH” it is “soluble”; for “VDSKKRPGKDLDRIDRNILNELQKDGRISNVELSKRVGLSPTPCLERVRRLERQGFIQGYTALLNPHYLDASLLVFVEITLNRGAPDVFEQFNTAVQKLEEIQECHLVSGDFDYLLKTRVPDMSAYRKLLGETLLRLPGVNDTRTYVVMEEVKQSNRLVIKTR” it is “soluble”.
Take “MGSDKIHHHHHHMTAQQGVPIKITNKEIAQEFLDKYDTFLFDCDGVLWLGSQALPYTLEILNLLKQLGKQLIFVTNNSTKSRLAYTKKFASFGIDVKEEQIFTSGYASAVYIRDFLKLQPGKDKVWVFGESGIGEELKLMGYESLGGADSRLDTPFDAAKSPFLVNGLDKDVSCVIAGLDTKVNYHRLAVTLQYLQKDSVHFVGTNVDSTFPQKGYTFPGAGSMIESLAFSSNRRPSYCGKPNQNMLNSIISAFNLDRSKCCMVGDRLNTDMKFGVEGGLGGTLLVLSGIETEERALKISHDYPRPKFYIDKLGDIYTLTNNEL”: the “soluble on expression in E. coli” value was “not soluble”.
As to “MSLNDFRPNPSLLLETSWEVCNKQGGIYTVLTSRAHEMMKRHDGRIIFIGPLLTEQEDLPTDFENTVPAILEDWHRDAAPSLDLRYVCGSWRTPGSPPVVLVDFEPLHAQKATLYYEMWEHFGIQSDKGYGDYDEASLFGIAAAQTMHSLCEYLCPEDQPAIGIFNEWMLGMGLLYSKRKTPRLKTLFLTHATTTGRSIAGNNKALYAYMPGYNGDQMAAELGVEAKHGIEKAAAHQSDTFATVSELTAKECRQLLERDPMVLPNGFEPNFVPQGEEYERRRAEARKRLLHVAEHLTGKQLPADTLLIATSGRYEYRNKGIDLFIDAASEAGRSGKLRTPTLAFILVPAWVAGARADLQYLLNHPDPTEYKEKPLPYPFLTHWLHDIQEQTISKRLDESAGSAGEVSFIFVPCYLNRKDGIFGLGYYDLLIGMDLTVFPSYYEPWGYTPLESIAFGIPTVTTDLSGFGLWAMQERGSRNDFSTGVAVIKRTDDNYAEAVQAIADLLYRWPAESTDRTACRLAAMQTASHAEWRLFYNRYEEAYSELLSRDEGHHHHHH”, the “soluble on expression in E. coli” value was “soluble”.
Turning to “MAHHHHHHMGDNILDQKVDLFGGKGIFTKELDEELIKGKVHICVHSLKDVPMELPEQVQLSCFLKRDTINDAFLSVKYGTLEDMNKMKMANKMEEGSYQPKGMSQRVINQNVKRDNYEGDHYDNFIPTIGTSSLRRSSQIKYKYKNVAVKNMRGNINTRIAKLCNGQYDAIIIAKCGLERLTTKKGIRNIIGGKNKVTPKNFLINYNNTEINLTSLHIQQINKRTIYPALCQGIIAVSSHKSDKYISDVLKNINDEKAQIMANIERSFLYQIEGNCMMPIGGYAKIVNGEIVFNAVINDIHGREKYHVREVGKVESYNEIAVMAATKMKEKIGTHRFNKIREEAAQYYA”, the “soluble on expression in E. coli” value was “not soluble”.
The entry for “NKYDWFEFFLNCGVDVSNCQRYTINFDREQLTEDMMPDINNSMLRTLGLREGDIVRVMKHLDKKFGRENIAS” is “soluble”; for “MGHHHHHHSHMATLIYVDKEIGEPGTRVAAKDVLKLESRPSIKALDGISQVLTPRFGKTYDAPSALPKATRKALGTVNRATEKSVKTNGPRKQKQPSFSAKKMTEKTVKTKSSVPASDDAYPEIEKFFPFNLLDFESFDLPEERQIAHLPLSGVPLMILDEEGELEKLFQLGPPSPVKMPSPPWECNLFAVSFKHSVDPGC” it is “not soluble”.
Turning to “GGGVKAFAFIGALQVLEENGFSFTRVAGTSAGAIFASLVCSGYRSDELFSIMEQLDGKMFKDGGKVMPFPFAKWLRLYFKLGMYKGDQLEKWLIQVLGHKGVSTFADLPKGALKIVASDISRGRLIVLPDDLKDYGLIPERFSVARAVRMSCGIPYFFQPVKLYNRKRRGERSYVVDGGILSNFPIWL”, the “soluble on expression in E. coli” value is listed as “not soluble”.
Turning to “MSFPTSITDHPIVQEAVHRLDDLGDPRAGQTLTRCLNDTLARTIRPMPDGTAFVVTGDIPAMWLRDSSTQMMPYLALLKDDTALQHLLLAVLRRQFQQIAHDPYANAFNAEPSGRAHDPEDLCGDPWVWEQKYEVDSLAFPLLLAHRFWAATGRTDHVPGMLRTARTVISVWRTEQDHERLSTYRFRRENGPSSDTLPNAGRGTPVTRTGMTWSGFRPSDDACAFGYNVPANLCAAAALDGAAELAHHTHDTELAEDAARLAAELRAATARHGTVRHPDFGSIYAYEVDGNGNAVLMDDANMPGLLSLPLVANIPTTDPVYLATRGFVLSPRNPTWYRGTAAEGIGSPHTPDEHIWPIAIAVQGLTSNDTTERRWALTTLLATDAGTGQMHESFHKDDPHRFTRPWFSWANAMYAELALDTVGLGTRPLWQAGTLEHHHHHH”, the “soluble on expression in E. coli” value is reported as “soluble”.
Take “MGFSKKSQFEGGLESDGKKWVIAGISIRASLKPVKTKLRAPPEIVTEVEEDCYNEEEECSTTPTAKETKIPELLECPPAPRKRRPALKCRSNVVREFFTPPSDLETVFLRRR”: the “soluble on expression in E. coli” value is on record as “not soluble”.
As to “MGSSHHHHHHSSGLVPRGSHMASNVKKFPEGFLWGVATASYQIEGSPLADGAGMSIWHTFSHTPGNVKNGDTGDVACDHYNRWKEDIEIIEKLGVKAYRFSISWPRILPEGTGRVNQKGLDFYNRIIDTLLEKGITPFVTIYHWDLPFALQLKGGWANREIADWFAEYSRVLFENFGDRVKNWITLNEPWVVAIVGHLYGVHAPGMRDIYVAFRAVHNLLRAHARAVKVFRETVKDGKIGIVFNNGYFEPASEKEEDIRAVRFMHQFNNYPLFLNPIYRGDYPELVLEFAREYLPENYKDDMSEIQEKIDFVGLNYYSGHLVKFDPDAPAKVSFVERDLPKTAMGWEIVPEGIYWILKKVKEEYNPPEVYITENGAAFDDVVSEDGRVHDQNRIDYLKAHIGQAWKAIQEGVPLKGYFVWSLLDNFEWAEGYSKRFGIVYVDYSTQKRIVKDSGYWYSNVVKNNGLED”, the “soluble on expression in E. coli” value was “soluble”.
The entry for “MNVSEALKGALPNFIPGLGTLYVDPSTLPEGPFLAYDRAGNLVKVVFMVPLKKLNESHKYVDIGTKTLRALGITRIDHVNLIPSGPHPGVSEPHYHIELVLVSVDQERKVLEGEPY” is “soluble”; for “MGHHHHHHAKAVAPTTGWKQENGMWYFYNTDGSMATGWVQVNGSWYYLNSNGSMKVNQWFQVGGKWYYVNTSGELAVNTSIDGYRVNDNGEWVR” it is “soluble”; for “IGNTLHNYSVLADSKSVLLGVMSKNIQVGSFAYRYLCRTSSRMNLNHLQTVDGPIGRCYTLISQDGERTFAINEGHMNQLLPESIPEEVFEKASALVVSSYLMRGKEEDPMPKAVQRAIDFAKKHDVPVVLTLGTKYVIEGNAEWWQEYIRENVSVVAMNEEEGAALTGEHDPLAAADKALEWVDLVLCTAGPNGLYMAGYTDEKVKRETTHDILESSIEEFNKFEFSRAMRKEDCVNPMKVYSHIGPYLGGPLEIKNTNGAGDAALSALLHDMAANSFHQKEVPTSEKHEVRCLTYSSLSQICKYANRVSYEVLTQHSPRLSRALPEREDSLEETYWDR” it is “not soluble”.
The same measure for “MAHHHHHHMVSKTRKQRQKKKAGMQAHDGVLPPVVPSVPKSVHLKKTRPNMKGKMKIRLGLESPIDIYNGFEERKGVIWRCPTCAKACRVVGFCVDCASGVKSKSHAGQLSGRASTKKEAAQTRAPKLRIKEKSRVVKLRRKK”: “soluble”; for “MWDKRELTDLAIISAIGIDRTNDSNYVLHLQIINPGNVAGGLQGGGAGDRPPVSVYSIEGNNITEALRKASMKVSRRLYFAHTNLVVINEKLAKEEGLDFVLDNLDRDTEFRTTATFVVAHKTKAENIVKILTPIDKIPSNKVNKTLDFTEAQYGRVVKINIQDVLKTLAANTMAPVIPGYMMIGDDKKGVSMENTQATDPKAILQADGLAVFDKAGYLKYWLEDDESVGAVWLMNKIQHTFINADWGKTKDAVSLQVTHQDTKLVPKMRNGRPYIHVKVSVEGIIDAVKYPFQLSDPKVLAAIEKALNKELEKEISHTVKKIKKNKIDFIGFGDTIYRKYPEQWEKMKDTWDKEYLPELPIDVKAETYIRRTGLRNNPIKHQFKDDLEHHHHHH”: “not soluble”; for “MSLSEDLFDVEVRNFEEGDKVTGTVTSVEDKQVYVGIPGSKLDGVVPISELSNIHVETASDVVSVGDTLDLIVTKVEDDILVLSKRKVDAEKASDDIKAKFESGEVFEAVVSDVVKGGLVVDLGVRAFVPASLVEDHFVEDFADYKGTTLTFKVVEFEPENNRVILSHRAVVETEKASQKQALLSEIKEGDVIEGTVQRLANFGAFVDIGGVDGLVHISQISYKHIATPQEALEEGQKVTVKVIGIDPENERISLSIKATLPGPWDGIAEKAPVGSVLEGKVVRLVTFGAFVEIFPGVEGLVHISQISHEHIGTPQEVLSEGQTVEVKVLEVNEADKRLSLSIKELKDAPVEEADYELPEENTGFQMSDLIGDKLKGLQNDDKEGHHHHHH”: “soluble”.
On to “MMYSFEANANAVKISETVSVDTGQGAKIHKFVPKNSKTYSSDLIKTVDLTHIPTGAKARINAKITASVSRAGVLAGVGKLARLGAKFSTRAVPYVGTALLAHDVYETFKEDIQARGYQYDPETDKFAKVSG”, for which the “soluble on expression in E. coli” value was “not soluble”.
